# Assay results: PMC3864954
# Columns and labels:
# Assay in all cases: ELISA; APP fragment (12.2 nM, 50 µL/well) plated at 4°C overnight; p75^NTR ECD-Fc or IgG-Fc added at the indicated concentrations for 2 h at room temperature; detected by anti-human IgG-Fc; EC50 from sigmoid dose-response curve
# [1] = molecular target: sAPPβ, recombinant, His-tagged
# [2] = molecular target: Soluble β-amyloid Precursor Protein Alpha (sAPPα), recombinant, His-tagged (UniProt P05067)
# [3] = molecular target: C-sAPPα (sAPPα 304–612), recombinant, His-tagged (UniProt P05067)
substance,measurement,setting,value
recombinant p75^NTR extracellular domain fused to human Fc (p75^NTR ECD-Fc) chimera protein (from UniProt P08138 29-250) (Fc fusion),EC50,[1],120 nM
same,EC50,[2],90 nM
same,EC50,[3],150 nM
